Patent US20260109776A1 (Amgen, published 2026)
Where two headings read alike, the source gives them in different places. Blank lines part the entries; values can stand above or below the binder they belong to.

Tests used:
human CD40 on cells [1] = target: T1, human CD40 on cells (human, UniProt P25942 21-277); experiment: flow cytometry, labelled CD40L on CD40-293T cells, antibody at 2.5 ug/ml
T1 construct: also called CD40 receptor on human B cells
Experimental: (§1) Percent ligand binding inhibition was calculated as [(CD40L binding gMFI in the absence of anti-CD40)−(CD40L binding gMFI in the presence of anti-CD40)]/(CD40L binding gMFI in the absence of anti-CD40). gMFI: geometric mean fluorescent intensity. All anti-CD40 antibodies show minimal effects on the ability of CD40L to bind to the CD40 receptor (Table 7).
Target sequence in this assay (P25942 21-277 limits assumed): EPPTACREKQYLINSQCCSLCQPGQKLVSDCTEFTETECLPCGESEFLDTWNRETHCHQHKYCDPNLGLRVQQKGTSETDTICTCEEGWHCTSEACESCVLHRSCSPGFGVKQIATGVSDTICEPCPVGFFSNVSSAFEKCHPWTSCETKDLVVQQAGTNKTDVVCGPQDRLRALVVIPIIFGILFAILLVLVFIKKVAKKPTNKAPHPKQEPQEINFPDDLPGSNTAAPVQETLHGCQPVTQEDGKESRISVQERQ

human CD40 on cells [2] = target: T1, human CD40 on cells; experiment: flow cytometry, labelled CD40L on CD40-293T cells, antibody at 20 ug/ml
Experimental: as §1
Target sequence in this assay (P25942 21-277 limits assumed): as above

mouse CD40 on cells [3] = target: T2, mouse CD40 on cells (mouse, UniProt P27512 20-289); experiment: flow cytometry, HEK293 transfectants
T2 construct: whole, on cells; also called mouse CD40 on HEK293 cells; CD40 on mouse B cells
T2 sequence (looked up): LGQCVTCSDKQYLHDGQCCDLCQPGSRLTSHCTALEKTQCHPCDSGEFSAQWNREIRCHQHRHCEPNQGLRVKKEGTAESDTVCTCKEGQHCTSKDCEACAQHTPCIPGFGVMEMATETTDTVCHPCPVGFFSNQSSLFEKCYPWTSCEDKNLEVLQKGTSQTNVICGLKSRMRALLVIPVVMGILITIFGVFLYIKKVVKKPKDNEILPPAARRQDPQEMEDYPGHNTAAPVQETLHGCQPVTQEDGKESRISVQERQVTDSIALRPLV

human CD40 = human CD40 (human, UniProt P25942 21-193, limits assumed); experiment: Octet
Experimental: (§2) The binding affinity of anti-human CD40 antibodies to human and cynomolgus monkey CD40 was measured by Octet assay (Table 3), quantifying association rate (Kon), disassociation rate (Kdis), and equilibrium binding constant (KD). Cross-reactivity of anti-CD40 antibodies to related TNF receptor superfamily (TNFRSF) members was evaluated by expressing human TNFR1, TNFR2, TNFR10, or TNFR14 on HEK293 cells by transient transfection of expression vectors encoding these genes. Binding of indicated anti-human CD40 antibody to these transfected cells was determined by flow cytometry. […] Cross-reactivity of anti-CD40 antibodies to cynomolgus monkey and mouse CD40 was evaluated by expressing cynomolgus monkey or mouse CD40 on HEK293 cells by transient transfection of expression vectors encoding these genes. Binding of indicated anti-human CD40 antibody to cells overexpressing cynomolgus monkey and mouse CD40 was determined by flow cytometry.

human CD40 on cells [4] = target: T1, human CD40 on cells; experiment: cell-based or functional assay
human TNFR14 [5] = target: T3, human TNFR14 (human, UniProt Q92956 39-283); experiment: flow cytometry, HEK293 transfectants
T3 construct: whole, on cells
T3 sequence (looked up): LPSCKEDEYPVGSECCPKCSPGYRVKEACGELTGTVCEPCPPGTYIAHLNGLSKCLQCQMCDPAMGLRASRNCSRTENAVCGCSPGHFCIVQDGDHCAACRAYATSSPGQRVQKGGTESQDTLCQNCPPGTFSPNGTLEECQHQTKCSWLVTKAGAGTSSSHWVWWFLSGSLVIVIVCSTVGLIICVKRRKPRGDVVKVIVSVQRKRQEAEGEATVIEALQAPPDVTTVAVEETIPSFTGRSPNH
Experimental: as §2

human TNFR2 [6] = target: T4, human TNFR2 (human, UniProt P20333 23-461); experiment: flow cytometry, HEK293 transfectants
T4 construct: whole, on cells
T4 sequence (looked up): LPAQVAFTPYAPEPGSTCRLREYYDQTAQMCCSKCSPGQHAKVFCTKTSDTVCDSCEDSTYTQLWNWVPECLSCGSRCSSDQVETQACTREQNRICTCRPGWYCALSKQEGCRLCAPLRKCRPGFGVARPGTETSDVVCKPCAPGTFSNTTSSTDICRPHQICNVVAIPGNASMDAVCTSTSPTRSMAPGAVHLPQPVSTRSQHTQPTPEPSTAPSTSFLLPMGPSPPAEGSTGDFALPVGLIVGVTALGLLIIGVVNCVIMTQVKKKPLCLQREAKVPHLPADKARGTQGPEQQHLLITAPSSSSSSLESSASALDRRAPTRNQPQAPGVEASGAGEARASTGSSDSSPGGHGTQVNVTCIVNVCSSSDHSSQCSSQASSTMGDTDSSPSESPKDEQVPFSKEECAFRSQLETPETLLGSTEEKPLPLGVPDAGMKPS
Experimental: as §2

human TNFR1 [7] = target: T5, human TNFR1 (human, UniProt P19438 30-455); experiment: flow cytometry, HEK293 transfectants
T5 construct: whole, on cells
T5 sequence (looked up): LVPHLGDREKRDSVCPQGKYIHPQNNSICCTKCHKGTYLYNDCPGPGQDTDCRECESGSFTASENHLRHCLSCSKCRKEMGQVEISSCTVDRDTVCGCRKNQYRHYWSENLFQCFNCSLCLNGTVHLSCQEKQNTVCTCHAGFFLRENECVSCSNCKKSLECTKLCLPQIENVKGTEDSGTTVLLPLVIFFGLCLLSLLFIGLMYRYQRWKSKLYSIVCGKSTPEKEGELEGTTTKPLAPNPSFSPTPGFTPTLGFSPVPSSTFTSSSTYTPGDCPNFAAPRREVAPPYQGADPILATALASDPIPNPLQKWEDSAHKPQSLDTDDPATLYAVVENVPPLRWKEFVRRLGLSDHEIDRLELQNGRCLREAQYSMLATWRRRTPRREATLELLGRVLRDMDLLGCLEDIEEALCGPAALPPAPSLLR
Experimental: as §2

human TNFR10 = target: T6, human TNFR10 (human); experiment: flow cytometry, HEK293 transfectants vs control cells
T6 construct: whole, on cells; Name as printed is ambiguous (TNFRSF10A-D)
Experimental: as §2

human TNFR14 [8] = target: T3, human TNFR14; experiment: as above
Experimental: as §2

human TNFR2 [9] = target: T4, human TNFR2; experiment: as above
Experimental: as §2

human TNFR1 [10] = target: T5, human TNFR1; experiment: as above
Experimental: as §2

[11] = target: T7, cynomolgus monkey CD40 on cells (cynomolgus monkey, UniProt P25942 21-277 (human entry)); experiment: as above
T7 construct: also called cyno CD40 on HEK293 cells; CD40 on cynomolgus monkey B cells
T7 chain: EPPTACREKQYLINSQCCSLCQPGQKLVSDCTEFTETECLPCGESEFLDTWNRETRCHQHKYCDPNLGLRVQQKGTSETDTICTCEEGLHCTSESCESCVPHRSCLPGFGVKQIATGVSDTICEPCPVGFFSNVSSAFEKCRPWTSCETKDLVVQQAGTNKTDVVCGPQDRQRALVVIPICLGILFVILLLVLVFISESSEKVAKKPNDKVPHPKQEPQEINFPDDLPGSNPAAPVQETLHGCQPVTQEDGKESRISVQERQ
Experimental: as §2

mouse CD40 on cells [12] = target: T2, mouse CD40 on cells; experiment: as above
Experimental: as §2

human CD40 on cells [13] = target: T1, human CD40 on cells; experiment: cell-based or functional assay; remark: listed apart in the source
Target sequence in this assay (P25942 21-277 limits assumed): as the sequence (P25942 21-277 limits assumed) above

human CD40 on cells [14] = target: T1, human CD40 on cells; experiment: flow cytometry, labelled CD40L on CD40-293T cells, antibody at 5 ug/ml
Experimental: as §1
Target sequence in this assay (P25942 21-277 limits assumed): as the sequence (P25942 21-277 limits assumed) above

human CD40 on cells [15] = target: T1, human CD40 on cells; experiment: flow cytometry, labelled CD40L on CD40-293T cells, antibody at 10 ug/ml
Experimental: as §1
Target sequence in this assay (P25942 21-277 limits assumed): as the sequence (P25942 21-277 limits assumed) above

human CD40 on cells [16] = target: T1, human CD40 on cells; experiment: cell-based or functional assay; remark: listed apart in the source

Chain of human CD40 (P25942 21-193 limits assumed): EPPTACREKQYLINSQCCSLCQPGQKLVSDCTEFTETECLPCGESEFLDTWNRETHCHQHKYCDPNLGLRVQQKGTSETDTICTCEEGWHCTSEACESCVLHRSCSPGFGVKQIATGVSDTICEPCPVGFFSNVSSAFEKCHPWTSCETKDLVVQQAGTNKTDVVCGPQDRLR

Ligand Binding Inhibition (%) (human CD40 on cells [1]): -3%
Ligand Binding Inhibition (%) (human CD40 on cells [2]): 1%
binding result (mouse CD40 on cells [3]): no binding
Kd (human CD40): 0.58 nM
koff (human CD40): 0.000238 s⁻¹
kon (human CD40): 407000 M⁻¹ s⁻¹
human B cell proliferation, no crosslinking, EC50 (human CD40 on cells [4]): > 16.7 nM
human B cell proliferation, no crosslinking, Max Fold Change (human CD40 on cells [4]): 1.35 fold
human B cell proliferation, with protein G crosslinking, EC50 (human CD40 on cells [4]): 0.344 nM
human B cell proliferation, with protein G crosslinking, Max Fold Change (human CD40 on cells [4]): 23.2 fold
binding result (human TNFR14 [5]): no binding
binding result (human TNFR2 [6]): no binding
binding result (human TNFR1 [7]): no binding
fold over control (gMFI) (human TNFR10): 0.89 fold
fold over control (gMFI) (human TNFR14 [8]): 0.88 fold
fold over control (gMFI) (human TNFR2 [9]): 0.93 fold
fold over control (gMFI) (human TNFR1 [10]): 1.03 fold
fold over control (gMFI) [11]: 73 fold
fold over control (gMFI) (mouse CD40 on cells [12]): 0.9 fold
human B cell proliferation, no crosslinking, % Max Activity (human CD40 on cells [13]): 2.3%
human B cell proliferation, no crosslinking, EC50 (human CD40 on cells [13]): > 13.4 nM
human B cell proliferation, with protein G crosslinking, % Max Activity (human CD40 on cells [13]): 88.9%
human B cell proliferation, with protein G crosslinking, EC50 (human CD40 on cells [13]): 0.19 nM
Ligand Binding Inhibition (%) (human CD40 on cells [14]): 9%
Ligand Binding Inhibition (%) (human CD40 on cells [15]): 3%
B1: 33H9 (antibody, IgG4, V domains shown)
VH: QVQLVESGGGVVQPGRSLRLSCAASGFTFSSHGMHWVRQPPGKGLEWVAVIWYDGSNEYYGDSVKGRFTISRDNSKNTLYLQMNSLRVEDTAVYYCTRGGGHWNYEGHYYGMDVWGQGTTVTVSS
VL: QAVPTQPSSLSASPGASASLTCTLRSGINVGSSRIYWYQQKPGSPPQFLLRYTSDSDKLQGSGVPSRFSGSKDASANAGLLLISGLQSEDEADYYCMIWHSSAVVFGGGTKLTVLG
notes: also called 4897-1

CD40L EC50, human B cell proliferation, no antibody (human CD40 on cells [16]): 1.08 ng/mL
CD40L EC50, human B cell proliferation, with 1 ug/ml 4G7 (human CD40 on cells [16]): 1.04 ng/mL
CD40L EC50, human B cell proliferation, with 1 ug/ml 29H10 (human CD40 on cells [16]): 0.715 ng/mL
CD40L EC50, human B cell proliferation, with 1 ug/ml 30A12 (human CD40 on cells [16]): 0.81 ng/mL
CD40L EC50, human B cell proliferation, with 1 ug/ml 33H6 (human CD40 on cells [16]): 1.14 ng/mL
CD40L EC50, human B cell proliferation, with 1 ug/ml 35F11 (human CD40 on cells [16]): 6.66 ng/mL
CD40L EC50, human B cell proliferation, with 1 ug/ml 36F3 (human CD40 on cells [16]): 13 ng/mL
CD40L EC50, human B cell proliferation, with 1 ug/ml 37A6 (human CD40 on cells [16]): 1.39 ng/mL
CD40L EC50, human B cell proliferation, with 1 ug/ml 39C2 (human CD40 on cells [16]): 0.985 ng/mL
B2: soluble human CD40L (ligand, UniProt P29965 113-261, looked up)
chain: MQKGDQNPQIAAHVISEASSKTTSVLQWAEKGYYTMSNNLVTLENGKQLTVKRQGLYYIYAQVTFCSNREASSQAPFIASLCLKSPGRFERILLRAANTHSSAKPCGQQSIHLGGVFELQPGASVFVNVTDPSQVSHGTGFTSFGLLKL
modifications: fluorescent label in the ligand binding assay of Table 7
